Measurements from patent US20040038369A1, “Airway-specific trypsin-like enzymes and method of using the same” (priority 2000, published 2004).

Assay: Enzymatic activity of mammalian ASTs transiently expressed in 293 EBNA cells
Assay type: biochemical
Settings: for Cell lysate Fluorescence intensity ratio (Human:100): 293 EBNA cell lysate, three days after transfection
Protocol: A forward primer and a reverse primer were prepared on gene sequences encoding the N-terminal and C-terminal of each mammalian AST, and a cDNA encoding the full-length AST was prepared by a PCR amplification using the forward primer, the reverse primer, Pyrobest DNA polymerase (produced by Takara Shuzo Co.), and an airway cDNA as a template. On the other hand, a product obtained by cleaving pcDNA3 (produced by Invitrogen Corp.) with restriction enzymes NruI and KpnI, and the promoter domain of Elongation Factor-1a (EF-1 a) from human genome were amplified by a PCR using a forward primer: […] and a reverse primer: […]. The amplified fragment was cleaved with restriction enzymes NruI and KpnI, and then inserted into the above-described plasmid vector to construct the pEF9 expression vector having the promoter of the human EF-1α. The PCR-amplified ATS fragment was inserted into a multi-cloning site in the downstream of the human EF-1α promoter of the above-described pEF9 expression vector to prepare each animal AST expression plasmid. The base sequences were identified with an automatic sequencer.
Human fetal kidney-originated 293 EBNA cells (Invitrogen Corp.) were cultured in a 10 cm schale, and the about 5.8×10^6 cells were transfected with 28 μg of each expression plasmid prepared in (1) in 56 μL of LipofectAMINE 2000 (produced by GibcoBRL Corp.) according to an appended manual. Three days later, the cells were lysed and recovered in 5 mL of M-PER (produced by PIERCE Corp.) and then mixed with 5 mL of a buffer solution (50 mM Tris-HCl, 0.01% BSA, pH=8.6) for AST activity assay to give the cell lysate. The cell lysate was further diluted with the buffer solution for the AST activity assay ten times, and then supplied for the activity assay. 40 μL of the above-described assay sample was mixed with 20 μL of a synthetic substrate solution (a solution obtained by diluting a 10 mM Boc-Phe-Ser-Arg-MCA DMSO (dimethyl sulfoxide) solution with the buffer solution for the AST activity assay 50 times), and the increase of the fluorescence intensity per minute was assayed (fluorescence wavelength: 460 nm, excitation wavelength: 380 nm) to determine the enzymatic activity.

B1: Monkey: monkey AST, SEQ ID NO: 28 and 29, expressed in 293 EBNA cells (protein, listed as Macaca fascicularis)
chain: MYRPARVPSTSRFLNPYVVCFIVVAGVVILAVTIALLVYFLAFDQKSYFYRSSFQLLNVEYNSQLNSPATQEYRTLSGRIESLITRTFKESNLRNQFMRAHVVKLSQDGSGVRADVVMKFRFTRNNNGASMKSRIESVLQQMLNNSGNLEINSSTEITSLTDQAAANWLINECGAGPDLITLSEQRIIGGTEAEEGSWPWQVSLRVNNAHHCGGSLISNTWILTAAHCFRSNSNPREWIATFGISTTNPRLRMRVRSILIHNNYISATHENDIALVRLENSVTFTRDIHSVCLPAATQNIPLGSTAYVTGWGAQEYAGSTVSELRQAQVRIISNDVCNAPYSYNGGILPGMLCAGVPQGGVDACQGDSGGPLVQEDSRRLWFLVGIVSWGDQCGLPDRPGVYTRVTTYRDWIRQRTGI
Q: Which “Cell lysate Fluorescence intensity ratio (Human:100)” value does the source give for B1 here?
A: 250

Q: What about the “Sup Fluorescence intensity ratio (Human:100)” value (293 EBNA, Sup) of the same molecule?
A: 150

B2: Dog: dog AST, SEQ ID NO: 30 and 31 (protein, listed as Canis familiaris)
chain: MYRPARVPSGSRFLNPYVVCFVVVAGVVILAVTIALLIHFLAFDQKSYFYHSSFQILNVQYSNQLNSPGTQEYRTLSGRIESLITKTFRESNLRNQFIRAHVVKLRQEGNGVIADVVMKFKFTRNNNGALMKSRIKSVLHQMLNNSGNLEISPSTEITSITDQDTVNIFTEGCGARPDLITLSEERILGGNKAEEGDWPWQVSLQKNNVHHCGGVLISSMWILSAAHCFRSQSNPRQWTAIFGASIAFPKQKRRVRTILIHNNYNPATHENDIAAIQLEGGINFTKNIHRVCLPEATQNIPPGSSAYVTGWGSQEYGGNTVSDLQQARVRIISNDVCNAPTSYNGAVRPGMLCAGLPQGGVDACRGDSGGPLVQEDSRRLWFLVGIVSWGDRCGLPDKPGVYTRVTAYRDWITEKTGV
Q: With B2 as the molecule, how does the “Cell lysate Fluorescence intensity ratio (Human:100)” value read?
A: 40

B3: Pig: pig AST, SEQ ID NO: 26 and 27 (protein, listed as Sus scrofa)
chain: MYRPATVRSASRSLNPYTVCFIVVAVVVILAVTIALLVHFLAFDQKAYFYHSRFQILNVEYSDELNSPATQKYRSLSGRIESMITRTFKESNLRNQFVRAHVVKLRQSGSGVIADIVMKFKFTRYNNGASMKSRIESVLRQMLNNTGNLVMNPSTELTPITDQDTVNIFTQGCGARPDLITLSEERIIGGTKAEEGDWPWQVSLQRNNLHHCGGVLISNRWILTAAHCFRSYSDPRQWTVTFGISTIFPKDRIGVRNILIHNNYNPETHENDIALVQLNREVAFTKNIHSVCLPEATQTIPPGSTAYVTGWGSQRYSGNTVPDLEQVRVNIISNDVCNSPAGYNGDVLPGMLCAGLPEGGADACQGDSGGPLQQEDSRRLWFLVGIVSWGYQCGLPDKPGVYTRVTAYRDWIAQQTGI
Q: Which “Cell lysate Fluorescence intensity ratio (Human:100)” value does the source give for B3 here?
A: 92

B4: Cattle: cattle AST, SEQ ID NO: 32 and 33 (protein, listed as Bos taurus)
chain: MYRPARVTSASRSLNPYLVFFVVVAVVVILAVIIGLLVYFLAFDQKSYFYQSSIQILGKQYSDELSSPATEKYRTLSGRIESMITKTFKESDLKNEFIKAHVVKLRQSGNNVIADIIMKFKFTRRINEASMKSRIESILRQMPNNSEDLNMNPTQVISITGQDTIQLFTRECGVRSDLITLSEERIIGGSKAEKGDWPWQVSLQWSSSHRCGGALISNRWILSAAHCFRSHSDPRQWIATFGTSTISPQLRVGVRNILIHDNYKPETHENDIALVQLDREVTFNRYIHTVCLPEANQAISAGSTAYVTGWGSQSYSGSTVSDLNQGRVNIISNTVCNTPAGYNGAVLSGMLCAGLPEGGVDACQGDSGGPLVQEDSRQHWFIVGIVSWGYQCGLPDKPGVYTRVTAYRDWITQQTGI
Q: With B4 as the molecule, how does the “Cell lysate Fluorescence intensity ratio (Human:100)” value read?
A: 16

B5: Rabbit: rabbit AST, SEQ ID NO: 34 and 35 (protein, listed as Oryctolagus cuniculus)
chain: MYRPARGSSTSRFLNPYVICFIVVAVVVILAVIVALLIHFLAFDKKSCFFHSSFQIRNVQYSDQLNSPATQEYRLLSERIESMISQTLQGSNLRNQFIRAHVVKLRQDSNSVIADVVMKFRVSRNNNGDAMKRRVQDVLQQMLNNSGSLEINPSTTVTEITGQDTETIFTQQCGARPDLITLSEERIIGGTQAEEGDWPWQVSLQPNNAHHCGGILISNTWILTAAHCFRSYSDPRQWTATFGISTAVSRQRMRIRTILVHNNYRSATHENDIAAVQLEGAITFTRNIHSVCLPEATQNITPGSSAYVTGWGSLEYGGNTVTYLQQGRVRIISNEVCNAPASYNGAVLPTMVCAGLSQGGVDACQGDSGGPLVQEDSRRLWFVVGIVSWGYQCGLPDKPGVYTRVTAYRDWIREQTGI
Q: For B5, which “Cell lysate Fluorescence intensity ratio (Human:100)” value is on record?
A: 30
